From PMC5505961

Target: recombinant LHCII (major light-harvesting complex), Lhcb1*2 (AB80) derivative with N-terminal Cys-Cys-Cys motif, C79S and C-terminal His6 tag (pea (Pisum sativum))
Test: sucrose density gradient ultracentrifugation; reconstituted monomers trimerized by His6 tag on Ni2+-sepharose columns, then sucrose density gradient (500 mM sucrose, 10 mM Tris-HCl pH 7.5, 5 mM TCEP, 0.05% (w/v) Triton X-100); trimer band collected and checked by CD (negative peak at 474 nm)

Substance “recombinant LHCII (major light-harvesting complex), Lhcb1*2 (AB80) derivative with N-terminal Cys-Cys-Cys motif, C79S and C-terminal His6 tag (natural protein)” has a stoichiometry N of 3.
